The record followed here is paper doi:10.1101/2025.05.02.651858, “Structural basis of unidirectional DNA recombination by the ϕC31 serine integrase” (bioRxiv, 2025).

First the molecules themselves.
B2: ϕC31 integrase S12A (cleavage-deficient mutant, full length) (enzyme, Streptomyces phage ϕC31, UniProt Q9T221 1-605, looked up)
chain: MDTYAGAYDRQARERENSSAASPATQRSANEDKAADLQREVERDGGRFRFVGHFSEAPGTSAFGTAERPEFERILNECRAGRLNMIIVYDVSRFSRLKVMDAIPIVSELLALGVTIVSTQEGVFRQGNVMDLIHLIMRLDASHKESSLKSAKILDTKNLQRELGGYVGGKAPYGFELVSETKEITRNGRMVNVVINKLAHSTTPLTGPFEFEPDVIRWWWREIKTHKHLPFKPGSQAAIHPGSITGLCKRMDADAVPTRGETIGKKTASSAWDPATVMRILRDPRIAGFAAEVIYKKKPDGTPTTKIEGYRIQRDPITLRPVELDCGPIIEPAEWYELQAWLDGRGRGKGLSRGQAILSAMDKLYCECGAVMTSKRGEESIKDSYRCRRRKVVDPSAPGQHEGTCNVSMAALDKFVAERIFNKIRHAEGDEETLALLWEAARRFGKLTEAPEKSGERANLVAERADALNALEELYEDRAAGAYDGPVGRKHFRKQQAALTLRQQGAEERLAELEAAEAPKLPLDQWFPEDADADPTGPKSWWGRASVDDKRVFVGLFVDKIVVTKSTTGRGQGTPIEKRASITWAKPPTDDDEDDAQDGTEDVAA
notes: ϕC31 integrase, Streptomyces phage ϕC31, UniProt Q9T221, 605-amino acid polypeptide chain, with S12A; also called full-length S12A integrase; source: E. coli BL21 (DE3) LOBSTR, pET28a, purified (HisTrap Ni-NTA, Superose 6 SEC)

Data set [1] concerns the molecule itself. In words: SEC-MALS; SEC-MALLS of equal amounts of purified integrase–attB and integrase–attP complexes mixed; step: two dimer–att complexes to the tetramer–attB–attP synaptic complex; Superose 6 increase 10/300, 20 mM HEPES pH 7.4, 150 mM NaCl, 2 mM MgCl2, 0.1 mM TCEP, 25 °C. For orientation: Size exclusion chromatography separates by hydrodynamic size, large species first.

Data set [2] deals with the molecule itself. In words: SEC-MALS; SEC-MALLS of integrase–attL complexes, without RDF; step: dimer–attL to attL–attL synaptic complex; Superose 6 increase 10/300, 20 mM HEPES pH 7.4, 150 mM NaCl, 2 mM MgCl2, 0.1 mM TCEP, 25 °C.
Data set [3] deals with the molecule itself. In words: cryo-EM structure; WT integrase–attL60 dimer complex, without RDF; 20 mM HEPES pH 7.4, 150 mM NaCl, 2 mM MgCl2, 0.1 mM TCEP; 0.4 mg/ml.
The target of data set [4] is B2. Briefly: SEC-MALS; SEC-MALLS with SDS-PAGE of the peaks: pre-formed integrase S12A–attB–attP synaptic complex mixed with RDF at 1:3 integrase:RDF molar ratio, 5 min room temperature; Superose 6 increase 10/300, 20 mM HEPES pH 7.4, 150 mM NaCl, 2 mM MgCl2, 0.1 mM TCEP, 25 °C. As to conditions: both partners purified.

B1: ϕC31 integrase ΔNTD (residues 1–140 deleted) (domain or fragment, Streptomyces phage ϕC31, UniProt Q9T221 141-605, looked up)
chain: ASHKESSLKSAKILDTKNLQRELGGYVGGKAPYGFELVSETKEITRNGRMVNVVINKLAHSTTPLTGPFEFEPDVIRWWWREIKTHKHLPFKPGSQAAIHPGSITGLCKRMDADAVPTRGETIGKKTASSAWDPATVMRILRDPRIAGFAAEVIYKKKPDGTPTTKIEGYRIQRDPITLRPVELDCGPIIEPAEWYELQAWLDGRGRGKGLSRGQAILSAMDKLYCECGAVMTSKRGEESIKDSYRCRRRKVVDPSAPGQHEGTCNVSMAALDKFVAERIFNKIRHAEGDEETLALLWEAARRFGKLTEAPEKSGERANLVAERADALNALEELYEDRAAGAYDGPVGRKHFRKQQAALTLRQQGAEERLAELEAAEAPKLPLDQWFPEDADADPTGPKSWWGRASVDDKRVFVGLFVDKIVVTKSTTGRGQGTPIEKRASITWAKPPTDDDEDDAQDGTEDVAA
notes: ϕC31 integrase, UniProt Q9T221, residues 1–140 deleted from the 605-amino acid chain; source: E. coli BL21 (DE3) LOBSTR, pET28a, purified (HisTrap Ni-NTA, Superose 6 SEC)
For B1, in data set [1], the binding result was “binds”. Usually stoichiometry N stands for a count of units in the complex or per binding partner. With B2, the “stoichiometry N” value in data set [1] worked out at 4.

B3: ϕC31 integrase S12A/E449K (enzyme, Streptomyces phage ϕC31, UniProt Q9T221 1-605, looked up)
chain: MDTYAGAYDRQARERENSSAASPATQRSANEDKAADLQREVERDGGRFRFVGHFSEAPGTSAFGTAERPEFERILNECRAGRLNMIIVYDVSRFSRLKVMDAIPIVSELLALGVTIVSTQEGVFRQGNVMDLIHLIMRLDASHKESSLKSAKILDTKNLQRELGGYVGGKAPYGFELVSETKEITRNGRMVNVVINKLAHSTTPLTGPFEFEPDVIRWWWREIKTHKHLPFKPGSQAAIHPGSITGLCKRMDADAVPTRGETIGKKTASSAWDPATVMRILRDPRIAGFAAEVIYKKKPDGTPTTKIEGYRIQRDPITLRPVELDCGPIIEPAEWYELQAWLDGRGRGKGLSRGQAILSAMDKLYCECGAVMTSKRGEESIKDSYRCRRRKVVDPSAPGQHEGTCNVSMAALDKFVAERIFNKIRHAEGDEETLALLWEAARRFGKLTKAPEKSGERANLVAERADALNALEELYEDRAAGAYDGPVGRKHFRKQQAALTLRQQGAEERLAELEAAEAPKLPLDQWFPEDADADPTGPKSWWGRASVDDKRVFVGLFVDKIVVTKSTTGRGQGTPIEKRASITWAKPPTDDDEDDAQDGTEDVAA
notes: ϕC31 integrase, UniProt Q9T221, with S12A and E449K; also called S12A/E449K double mutant; source: E. coli BL21 (DE3) LOBSTR, pET28a, purified (HisTrap Ni-NTA, Superose 6 SEC)
Consider B3, for which, in data set [2], the binding result is “binds”.

B4: ϕC31 integrase (wild type) (enzyme, Streptomyces phage ϕC31, UniProt Q9T221 1-605, looked up)
chain: MDTYAGAYDRQSRERENSSAASPATQRSANEDKAADLQREVERDGGRFRFVGHFSEAPGTSAFGTAERPEFERILNECRAGRLNMIIVYDVSRFSRLKVMDAIPIVSELLALGVTIVSTQEGVFRQGNVMDLIHLIMRLDASHKESSLKSAKILDTKNLQRELGGYVGGKAPYGFELVSETKEITRNGRMVNVVINKLAHSTTPLTGPFEFEPDVIRWWWREIKTHKHLPFKPGSQAAIHPGSITGLCKRMDADAVPTRGETIGKKTASSAWDPATVMRILRDPRIAGFAAEVIYKKKPDGTPTTKIEGYRIQRDPITLRPVELDCGPIIEPAEWYELQAWLDGRGRGKGLSRGQAILSAMDKLYCECGAVMTSKRGEESIKDSYRCRRRKVVDPSAPGQHEGTCNVSMAALDKFVAERIFNKIRHAEGDEETLALLWEAARRFGKLTEAPEKSGERANLVAERADALNALEELYEDRAAGAYDGPVGRKHFRKQQAALTLRQQGAEERLAELEAAEAPKLPLDQWFPEDADADPTGPKSWWGRASVDDKRVFVGLFVDKIVVTKSTTGRGQGTPIEKRASITWAKPPTDDDEDDAQDGTEDVAA
notes: ϕC31 integrase, Streptomyces phage ϕC31, UniProt Q9T221, 605-amino acid polypeptide chain; Used only for the integrase–attL cryo-EM complex (dimer on attL60 DNA); also called WT integrase; source: E. coli BL21 (DE3) LOBSTR, pET28a, purified (HisTrap Ni-NTA, Superose 6 SEC)
Consider B4, for which the binding result in data set [3] is “binds”.

B5: ϕC31 Recombination Directionality Factor (RDF), gp3 (natural protein, Streptomyces phage ϕC31, UniProt Q9T216 1-244, looked up)
chain: MAKRSIWAGDEDNKPKKRETYADDTVGRFHSGYSETNERGKVVPVALDKWRISTGEQSVADAVAQLFGGTPVENEESTSENFIDVFTDRPKVPVIIEADGIHWDMKLWLNGKLKHHCDGFDFVSHADEEMIGQPCGCPKLFDERKAAAKEYDAPNPAITVTFTLADDPELGRFKFQTGSWTLFKVLHEAEDDVERVGKGGAVLANLELELVEYTPKRGPMRNKLVSYYKPTITVLKSYNDAIAD
notes: RDF gp3 protein of Streptomyces phage ϕC31, UniProt Q9T216; residues 23–239 were modelled in the cryo-EM structure; In the excisive synaptic complex structure the RDF stood as the C-terminal part of the fusion protein m9, not as the separate His-tagged protein; source: E. coli BL21 (DE3) LOBSTR, pET28a, purified (HisTrap Ni-NTA, Superdex 200 SEC)
As to B5, the binding result in data set [4] is recorded as “binds”.
